Results taken from publication PMC7190278 (Cell, 2020).
Where no end group is shown, it is not given here. [ ]: non-standard residue; d: D form. pS = N[C@@H](COP(=O)(O)O)C(=O)O

Experiments:
[1] = biological target: T1, HA-tagged human NPM2 (nucleoplasmin 2) (human, UniProt Q86SE8 1-214); test: pull-down
T1 sequence (looked up): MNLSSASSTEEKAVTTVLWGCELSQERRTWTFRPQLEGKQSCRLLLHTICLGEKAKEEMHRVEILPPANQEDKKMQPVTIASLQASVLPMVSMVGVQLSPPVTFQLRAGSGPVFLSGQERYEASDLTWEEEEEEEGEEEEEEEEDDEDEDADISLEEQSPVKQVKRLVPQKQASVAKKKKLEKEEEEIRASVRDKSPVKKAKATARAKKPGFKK

[2] = biological target: HA-tagged human HIRA (human, UniProt P54198 1-1017); test: pull-down
HA-tagged human HIRA, sequence (P54198 whole entry): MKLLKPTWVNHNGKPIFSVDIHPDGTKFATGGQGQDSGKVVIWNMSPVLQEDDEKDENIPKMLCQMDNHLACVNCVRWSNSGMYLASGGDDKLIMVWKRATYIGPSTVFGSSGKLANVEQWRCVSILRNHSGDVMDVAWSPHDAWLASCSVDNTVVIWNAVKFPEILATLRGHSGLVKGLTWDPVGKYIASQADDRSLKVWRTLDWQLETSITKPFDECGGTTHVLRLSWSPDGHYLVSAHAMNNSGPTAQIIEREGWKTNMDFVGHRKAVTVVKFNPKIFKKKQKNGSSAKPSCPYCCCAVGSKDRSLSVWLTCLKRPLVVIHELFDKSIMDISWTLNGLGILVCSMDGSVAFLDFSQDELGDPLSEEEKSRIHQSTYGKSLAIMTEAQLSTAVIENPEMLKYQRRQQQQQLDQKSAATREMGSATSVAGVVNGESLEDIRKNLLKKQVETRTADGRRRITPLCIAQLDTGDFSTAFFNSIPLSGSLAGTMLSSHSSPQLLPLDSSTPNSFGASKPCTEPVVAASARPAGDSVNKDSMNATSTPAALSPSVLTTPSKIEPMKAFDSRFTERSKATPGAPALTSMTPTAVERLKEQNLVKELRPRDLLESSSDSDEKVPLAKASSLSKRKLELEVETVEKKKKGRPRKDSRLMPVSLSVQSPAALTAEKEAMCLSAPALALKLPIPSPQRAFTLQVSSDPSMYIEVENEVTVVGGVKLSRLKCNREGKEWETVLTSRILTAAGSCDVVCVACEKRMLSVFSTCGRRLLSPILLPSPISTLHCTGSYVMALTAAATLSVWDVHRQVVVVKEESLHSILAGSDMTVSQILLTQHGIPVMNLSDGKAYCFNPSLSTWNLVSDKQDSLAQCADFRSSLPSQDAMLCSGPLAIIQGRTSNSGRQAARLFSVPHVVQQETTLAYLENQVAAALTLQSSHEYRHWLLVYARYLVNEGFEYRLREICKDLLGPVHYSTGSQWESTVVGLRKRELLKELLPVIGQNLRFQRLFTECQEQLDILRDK

Row | Binder | binding result [1] | binding result [2]
1 | Protamine 1 (P1), wild type, not phosphorylated (peptide, UniProt P02319 1-51, looked up) MARYRCCRSKSRSRCRRRRRRCRRRRRRCCRRRRRRCCRRRRSYTIRCKKY | binds | –
2 | Protamine 1 (P1) S9A, not phosphorylated (peptide, UniProt P02319 1-51, looked up) MARYRCCRAKSRSRCRRRRRRCRRRRRRCCRRRRRRCCRRRRSYTIRCKKY | binds | –
3 | Protamine 1 (P1) S43A, not phosphorylated (peptide, UniProt P02319 1-51, looked up) MARYRCCRSKSRSRCRRRRRRCRRRRRRCCRRRRRRCCRRRRAYTIRCKKY | binds | –
4 | Protamine 1 (P1) S9A S43A double mutant (peptide, UniProt P02319 1-51, looked up) MARYRCCRAKSRSRCRRRRRRCRRRRRRCCRRRRRRCCRRRRAYTIRCKKY | binds | –
5 | Protamine 1 (P1) S9A, phosphorylated by SRPK1 (peptide, UniProt P02319 1-51, looked up, cysteine pairing not given here) MARYRCCRAKSRSRCRRRRRRCRRRRRRCCRRRRRRCCRRRR[pS]YTIRCKKY | binds | binds
6 | Protamine 1 (P1) S43A, phosphorylated by SRPK1 (peptide, UniProt P02319 1-51, looked up, cysteine pairing not given here) MARYRCCR[pS]KSRSRCRRRRRRCRRRRRRCCRRRRRRCCRRRRAYTIRCKKY | binds | binds
7 | Protamine 1 (P1), wild type, phosphorylated by SRPK1 (peptide, UniProt P02319 1-51, looked up, cysteine pairing not given here) MARYRCCR[pS]KSRSRCRRRRRRCRRRRRRCCRRRRRRCCRRRR[pS]YTIRCKKY | binds | –
